Measurements from patent publication US10428140B2, “Anti-EphA4 antibody” (EISAI R&D MANAGEMENT CO., LTD., priority 2015, dated 2019).

Tested on: human iPS cell-derived motor neuron / variant human SOD1 (G93A)-expressing astrocyte coculture
Assay: Motor neuron protection in in vitro ALS model derived from human iPS cells
Format: cell-based
Details: antibody A 10, 30, 100 nM; EphA4-Fc 3, 10, 30 nM; KYL peptide 1, 3, 10 μM; 2 days
Description: Human iPS cells were maintained and cultured according to the following steps. Human iPS cells (201B7) cryopreserved in liquid nitrogen using Stem cell banker (TAKARA) were taken out of the gas phase of liquid nitrogen and immediately suspended and thawed in 5 mL of a human iPS cell culture medium (Essential 8, Thermo Fisher Scientific) prewarmed to 37° C. The cell suspension was recovered into a 15-mL conical tube (Falcon) and centrifuged (1000 rpm, 5 min, room temperature), followed by the removal of the supernatant. The cells were suspended in a fresh medium and then disseminated to a ϕ60 mm cell culture dish (Falcon BD) coated with 0.5 μg/cm^2 Human recombinant vitronectin (Invitrogen) in advance. 10 μM Y-27632 (Wako Pure Chemical Industries) was added thereto, and the cells were maintained and cultured in a CO2 incubator (5% CO2, 37° C.). Medium replacement was performed every day, and the cells were subjected to the experiment when reaching confluency.
The culture medium of the maintained and cultured human iPS cells was aspirated, and the cells were washed with 2 mL of PBS (Wako Pure Chemical Industries). […] Then, the number of cells was counted using a counting chamber. […]

B1: antibody A: mouse anti-EphA4 monoclonal antibody, IgG1/κ; heavy chain variable region SEQ ID NO: 11, light chain variable region SEQ ID NO: 13 (antibody, listed as Mus musculus, V domains shown)
VH: QIQLVQSGPELKKPGETVKISCKASGYTFTDYSMHWVKQAPGKGLKWMGWINTETGEPTYADDFKGRFAFSLETSASTAYLQINNLKNEDTATYFCARIPLYYYGSRYWYFDVWGAGTTVTVSS
VL: DIQMTQSPASLSVSVGETVTITCRASENIYRNLAWYQQKQGKSPQLLVYAATNLADGVPSRFSGSGSGTQYSLKINSLQSEDFGSYYCQHFWGTPWTFGGGTKLEIK
- suppression of motor neuron death / motor neuron protective effect (in words): suppressed, in a concentration-dependent manner
